From patent US20240132578A1 come the findings set out here.

Holding throughout (experiment): cell-based or functional assay
Assay [1] deals with HIV-1 JR-CSF Env Q422A (HIV-1 (isolate JR-CSF)) (UniProt P20871).
The target in assay [2] is HIV-1 JR-CSF Env I420A (HIV-1 (isolate JR-CSF)) (UniProt P20871).
The target of assay [3] is HIV-1 Env of isolate MGRM-AE-001 (subtype AE) (HIV-1).
The target of assay [4] is HIV-1 Env of isolate MGRM-F1-021 (HIV-1).
Assay [5] concerns the target HIV-1 Env of isolate 92UG114 (pseudovirus) (HIV-1).
Assay [6] deals with HIV-1 Env of pseudovirus isolate MGRM-C-014 (clade C) (HIV-1).
The target of assay [7] is HIV-1 Env of pseudovirus isolate MGRM-C-010 (clade C) (HIV-1).
Assay [8] has as its target HIV-1 JR-CSF Env L416A (HIV-1 (isolate JR-CSF)) (UniProt P20871).
Assay [9] addresses HIV-1 Env of isolate MGRM-A-009 (subtype A) (HIV-1).
For assay [10], the target named is HIV-1 Env of isolate MGRM-AG-002 (subtype AG) (HIV-1).
In assay [11] the target is HIV-1 Env of isolate MGRM-G-025 (subtype G) (HIV-1).
Assay [12] deals with HIV-1 Env of isolate MGRM-AG-001 (pseudovirus) (HIV-1).
The target in assay [13] is HIV-1 envelope glycoprotein (Env) of isolate 94 KE 105, subtype AC (HIV-1).
The target in assay [14] is HIV-1 envelope glycoprotein (Env) of isolate TRJO4551.58, on pseudovirus (HIV-1).
In assay [15] the target is HIV-1 envelope glycoprotein (Env) of isolate MGRM-Chronic-B-020, on pseudovirus (HIV-1).
The next assay deals with aMLV envelope.
The target of assay [16] is HIV-1 MGRM-AG-005 envelope protein (Env) on pseudovirus (HIV-1).
In assay [17] the target is HIV-1 CMU02 envelope protein (Env) on pseudovirus (HIV-1).
The target in assay [18] is HIV-1 92UG024 envelope protein (Env) on pseudovirus (HIV-1).
Assay [19] addresses HIV-1 Env of isolate MGRM-F1-016 (pseudovirus) (HIV-1).
A further assay deals with HIV-1 NL43 Env (HIV-1).
Assay [20] concerns the target HIV-1 envelope glycoprotein (Env) of isolate 92UG031, subtype A (HIV-1).
Assay [21] concerns the target HIV-1 MGRM-AG-005 Env (pseudovirus) (HIV-1).
Assay [22] addresses HIV-1 Env of isolate 92TH021 (CRF01_AE) (HIV-1).
The target of assay [23] is HIV-1 Env of isolate MGRM-D-019 (clade D pseudovirus) (HIV-1).
Assay [24] has as its target HIV-1 Env of pseudovirus MGRM-G-027 (HIV-1).
Assay [25] concerns the target HIV-1 Env of pseudovirus MGRM-G-019 (HIV-1).
In assay [26] the target is HIV-1 Env of isolate 93IN905 (Clade C) (HIV-1).
For assay [27], the target named is HIV-1 MGRM-AG-003 Env (pseudovirus) (HIV-1).
For assay [28], the target named is HIV-1 Env of isolate APV_17, clade B (HIV-1).
Assay [29] concerns the target HIV-1 Env of isolate 92UG001 (clade D pseudovirus) (HIV-1).

Chain of 5345_I01 (PGT-137) (antibody) (VH): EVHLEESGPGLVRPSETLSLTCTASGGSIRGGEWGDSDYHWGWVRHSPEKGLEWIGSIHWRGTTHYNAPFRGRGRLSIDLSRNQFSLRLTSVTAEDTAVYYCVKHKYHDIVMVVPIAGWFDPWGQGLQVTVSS
Chain of 5345_I01 (PGT-137) (antibody) (VL): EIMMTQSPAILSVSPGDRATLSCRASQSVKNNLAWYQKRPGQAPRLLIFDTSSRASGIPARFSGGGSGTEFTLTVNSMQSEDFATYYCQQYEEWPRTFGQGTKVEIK
Chain of 5329_C19 (PGT-136) (antibody) (VH): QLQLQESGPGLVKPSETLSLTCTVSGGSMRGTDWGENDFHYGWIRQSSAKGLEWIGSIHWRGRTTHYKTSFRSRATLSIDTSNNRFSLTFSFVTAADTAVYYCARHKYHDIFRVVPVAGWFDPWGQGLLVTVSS
Chain of 5329_C19 (PGT-136) (antibody) (VL): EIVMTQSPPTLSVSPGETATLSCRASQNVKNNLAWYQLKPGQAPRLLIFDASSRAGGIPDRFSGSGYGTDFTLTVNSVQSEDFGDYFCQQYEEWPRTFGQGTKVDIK

On to 5114_A19 (PGT-128) (antibody), for which the values for the Fold IC50 increase relative to wild-type (pseudovirus neutralization) in assay [1], in assay [2] and in assay [8] were 0.2 fold, 0.8 fold and 1.1 fold, respectively. Moreover, the IC50, pseudovirus neutralization in assay [3] was 0.069 µg/mL; in assay [6] it was above 50 µg/mL; in assay [7], above 50 µg/mL; in [9], 0.005 µg/mL; in assay [10], 4.99 µg/mL. Besides, the IC50 (µg/mL), pseudovirus neutralization is above 50 µg/mL in [4] and 0.083 µg/mL in [5].

With PGV04 (antibody), the IC50 (µg/mL), pseudovirus neutralization in assay [4] was 0.031 µg/mL; in [11], 1.61 µg/mL; in assay [12], 0.218 µg/mL.

In the case of 4858_P08 (PGT-123) (antibody), the IC50, pseudovirus neutralization in assay [13] was 0.024 µg/mL; in assay [14], 16.9 µg/mL; in assay [15], 0.005 µg/mL; in the assay with aMLV envelope, above 10 µg/mL; with HIV-1 NL43 Env (HIV-1), above 10 µg/mL; in assay [20], above 50 µg/mL. Further, the Fold IC50 increase relative to wild-type (pseudovirus neutralization) in [1] was determined as 0.8 fold; in assay [2] it was 3.2 fold; in assay [8], 0.9 fold. The IC50 (ug/mL), pseudovirus neutralization in assay [16] was 0.104 µg/mL; in [17], above 10 µg/mL; in assay [18], above 10 µg/mL. The IC50 (µg/mL), pseudovirus neutralization in assay [19] is 4.95 µg/mL; in [12], 2.51 µg/mL.

As for 5141_B17 (PGT-126) (antibody), the IC50, pseudovirus neutralization in [13] was 0.006 µg/mL; in assay [14], 0.025 µg/mL; in assay [15], 0.021 µg/mL; with aMLV envelope it was above 10 µg/mL; in the assay with HIV-1 NL43 Env (HIV-1), above 10 µg/mL; in assay [20] it was above 50 µg/mL. The Fold IC50 increase relative to wild-type (pseudovirus neutralization) amounted to 1.1 fold in assay [1], 0.6 fold in assay [2] and 0.8 fold in assay [8]. For the same substance, the IC50 (ug/mL), pseudovirus neutralization in [16] is 1.35 µg/mL; in [17], above 10 µg/mL; in assay [18], above 10 µg/mL. The IC50 (µg/mL), pseudovirus neutralization in assay [19] and in assay [12] was above 50 µg/mL in each case.

As to 4838_L06 (PGT-121) (antibody), the IC50, pseudovirus neutralization was 0.029 µg/mL in assay [13]; 7.09 µg/mL in [14]; 0.004 µg/mL in assay [15]; above 10 µg/mL with aMLV envelope; above 10 µg/mL with HIV-1 NL43 Env (HIV-1); above 50 µg/mL in assay [20]. For the same substance, the IC50 (ug/mL), pseudovirus neutralization in assay [17] and in assay [18] was above 10 µg/mL in each case. In assay [19], this substance showed an IC50 (µg/mL), pseudovirus neutralization of 0.931 µg/mL.

For the substance 5136_H01 (PGT-131) (antibody), the Fold IC50 increase relative to wild-type (pseudovirus neutralization) came to 1.9 fold in assay [1], 153 fold in assay [2] and 1 fold in assay [8]. Further, the IC50, pseudovirus neutralization in assay [3] is 4.8 µg/mL; in assay [6], above 50 µg/mL; in assay [7] it was above 50 µg/mL; in assay [9] it was 0.035 µg/mL; in [10] it was above 50 µg/mL. The IC50 (µg/mL), pseudovirus neutralization in assay [4] and in assay [5] was above 50 µg/mL each time.

On to 5345_I01 (PGT-137) (antibody), for which the IC50, pseudovirus neutralization in assay [3], in assay [6], in [7], in [9] and in [10] was above 50 µg/mL in each case. For the same substance, the IC50 (µg/mL), pseudovirus neutralization in assay [4] and in [5] was above 50 µg/mL throughout.

Take 5329_C19 (PGT-136) (antibody): the IC50, pseudovirus neutralization in [3], in assay [6], in assay [7], in assay [9] and in assay [10] was above 50 µg/mL in each case. The IC50 (µg/mL), pseudovirus neutralization in assay [4] and in assay [5] was above 50 µg/mL in each case. The figures for the IC50 (ug/mL), pseudovirus neutralization in [16], in [17] and in [18] were above 10 µg/mL, above 10 µg/mL and 0.0915 µg/mL, respectively.

For the substance 5145_B14 (PGT-127) (antibody), the IC50, pseudovirus neutralization in assay [13] is 0.023 µg/mL; in [14], 0.063 µg/mL; in assay [15], 0.05 µg/mL; in [20], above 50 µg/mL. Further, the Fold IC50 increase relative to wild-type (pseudovirus neutralization) is 0.1 fold in [1], 1.8 fold in [2] and 1 fold in [8]. Also, the IC50 (µg/mL), pseudovirus neutralization in assay [19] and in assay [12] was above 50 µg/mL throughout.

Consider 5123_A06 (PGT-125) (antibody), for which the IC50, pseudovirus neutralization was 0.004 µg/mL in [13]; 0.019 µg/mL in assay [14]; 0.087 µg/mL in [15]; above 10 µg/mL with aMLV envelope; above 10 µg/mL in the assay with HIV-1 NL43 Env (HIV-1); above 50 µg/mL in assay [20]. Also, the Fold IC50 increase relative to wild-type (pseudovirus neutralization) in [1] amounted to 1.2 fold; in assay [2], 1.1 fold; in assay [8], 0.8 fold. The Neutralization by PGT-125, IC50 in assay [21] is above 10 µg/mL. Besides, the Neutralization by PGT-125, IC80 in [21] is above 10 µg/mL. The same substance came in with a Neutralization by PGT-125, IC90 in [21] above 10 µg/mL. Also, the Neutralization by PGT-125, IC95 in [21] was above 10 µg/mL. Further, the IC50 (ug/mL), pseudovirus neutralization in assay [16], in assay [17] and in assay [18] was above 10 µg/mL each time. The IC50 (µg/mL), pseudovirus neutralization in assay [19] and in assay [12] was above 50 µg/mL each time.

Turning to 4877_D15 (PGT-122) (antibody), the IC50, pseudovirus neutralization in assay [13] was 0.056 µg/mL; in assay [14] it was above 50 µg/mL; in assay [15], 0.005 µg/mL; in the assay with aMLV envelope it was above 10 µg/mL; with HIV-1 NL43 Env (HIV-1), above 10 µg/mL; in [20], above 50 µg/mL. The IC50 (ug/mL), pseudovirus neutralization in assay [16], in [17] and in [18] was above 10 µg/mL in each case. For the same substance, the results for the IC50 (µg/mL), pseudovirus neutralization in [19] and in assay [12] were 4.81 µg/mL and 14.5 µg/mL, respectively.

1496_C09 (PG9) (TCN-109) (antibody): the IC50 (µg/ml), pseudovirus neutralization stood at 29.7 µg/mL in assay [21]; 0.01 µg/mL in assay [24]; 0.67 µg/mL in assay [25]; 9.71 µg/mL in assay [27]; 14.6 µg/mL in assay [28]. The IC90 (neutralization of pseudovirus) in assay [22] worked out at 1.99 µg/mL; in assay [26], 1.89 µg/mL. For the same substance, the results for the IC50, pseudovirus neutralization (in [23]; with HIV-1 NL43 Env (HIV-1); in [29]) were 0.03 µg/mL, 0.687 µg/mL and 41.8 µg/mL, respectively. This substance also registered an IC50 (ug/mL), pseudovirus neutralization in [18] of 1.91 µg/mL. The substance further returned an IC50 (µg/mL), pseudovirus neutralization in assay [12] of 17.1 µg/mL.
